The source of these data is article PMC11957692, “TRIB3 mediates vascular calcification by facilitating self-ubiquitination and dissociation of Smurf1 in chronic kidney disease” (The Journal of Clinical Investigation, 2025).

For experiment [1], the target named is T1, recombinant Smurf1 protein (UniProt Q9HCE7 1-757).
T1 chain: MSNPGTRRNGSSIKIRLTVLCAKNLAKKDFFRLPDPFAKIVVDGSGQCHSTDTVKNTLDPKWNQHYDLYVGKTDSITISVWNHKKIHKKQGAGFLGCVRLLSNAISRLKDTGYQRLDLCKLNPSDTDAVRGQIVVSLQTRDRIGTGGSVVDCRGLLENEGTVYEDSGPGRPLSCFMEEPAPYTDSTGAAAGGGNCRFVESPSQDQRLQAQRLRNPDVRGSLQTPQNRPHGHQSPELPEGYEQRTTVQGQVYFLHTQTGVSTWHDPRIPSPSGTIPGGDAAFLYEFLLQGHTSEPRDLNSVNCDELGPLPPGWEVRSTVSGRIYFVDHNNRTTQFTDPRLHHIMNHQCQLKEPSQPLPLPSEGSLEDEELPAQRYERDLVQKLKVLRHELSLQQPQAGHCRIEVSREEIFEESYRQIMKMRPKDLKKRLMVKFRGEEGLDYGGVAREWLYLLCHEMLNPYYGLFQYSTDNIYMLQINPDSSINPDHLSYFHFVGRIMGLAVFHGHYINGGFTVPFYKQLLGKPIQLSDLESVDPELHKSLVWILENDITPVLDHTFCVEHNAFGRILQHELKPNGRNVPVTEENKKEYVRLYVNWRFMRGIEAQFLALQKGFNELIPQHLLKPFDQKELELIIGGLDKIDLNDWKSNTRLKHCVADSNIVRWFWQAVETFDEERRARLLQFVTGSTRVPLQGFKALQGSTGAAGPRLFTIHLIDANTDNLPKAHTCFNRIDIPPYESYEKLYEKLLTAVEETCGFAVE
As to the kind of experiment: SPR. Background: Surface plasmon resonance follows binding to a sensor surface in real time, without labels.

In experiment [2] the target is T2, recombinant Smurf1 protein (UniProt Q9HCE7 1-757).
T2 construct: Smad ubiquitination regulatory factor 1 (Smurf1), recombinant protein immobilised on a CM5 chip for SPR; also called Smad ubiquitination regulatory factor 1; E3 ubiquitin-protein ligase Smurf1
Description: SPR; recombinant Smurf1 immobilised on a CM5 sensor chip by amine coupling; TRIB3 protein applied at 31 nM to 8 uM; Biacore T200, kinetics model. The conditions noted are these: both partners purified.

B1: recombinant TRIB3 protein (natural protein, UniProt Q96RU7 1-358, looked up)
chain: MRATPLAAPAGSLSRKKRLELDDNLDTERPVQKRARSGPQPRLPPCLLPLSPPTAPDRATAVATASRLGPYVLLEPEEGGRAYQALHCPTGTEYTCKVYPVQEALAVLEPYARLPPHKHVARPTEVLAGTQLLYAFFTRTHGDMHSLVRSRHRIPEPEAAVLFRQMATALAHCHQHGLVLRDLKLCRFVFADRERKKLVLENLEDSCVLTGPDDSLWDKHACPAYVGPEILSSRASYSGKAADVWSLGVALFTMLAGHYPFQDSEPVLLFGKIRRGAYALPAGLSAPARCLVRCLLRREPAERLTATGILLHPWLRQDPMPLAPTRSHLWEAAQVVPDGLGLDEAREEEGDREVVLYG
notes: Tribbles homolog 3 (TRIB3), recombinant protein flowed over the chip in SPR; also called tribbles homolog 3
For B1, in experiment [1], the koff (as a rule, a measure of how fast the partners let go of each other) is 0.0015 s⁻¹. The dissociation constant (Kd) (as a rule, the constant that tells how readily two partners part at equilibrium) in experiment [2] came out at 1030 nM.
